# Test results published in patent US20020098189A1 (AstraZeneca / MedImmune, published 2002).
# How the values were obtained:
# [1] = substrate: F protein of respiratory syncytial virus (RSV-Long strain), on infectious virus (respiratory syncytial virus (RSV-Long strain)) (UniProt P12568); test: cell-based or functional assay
# [2] = target: T1, C-terminal truncated RSV F protein, secreted from recombinant baculovirus-infected cells (respiratory syncytial virus (strain not …, UniProt P03420 26-526)); test: SPR (BIAcore), F protein immobilized, Fab injected
# T1 construct: also called F antigen of RSV
# T1 sequence (P03420 26-526): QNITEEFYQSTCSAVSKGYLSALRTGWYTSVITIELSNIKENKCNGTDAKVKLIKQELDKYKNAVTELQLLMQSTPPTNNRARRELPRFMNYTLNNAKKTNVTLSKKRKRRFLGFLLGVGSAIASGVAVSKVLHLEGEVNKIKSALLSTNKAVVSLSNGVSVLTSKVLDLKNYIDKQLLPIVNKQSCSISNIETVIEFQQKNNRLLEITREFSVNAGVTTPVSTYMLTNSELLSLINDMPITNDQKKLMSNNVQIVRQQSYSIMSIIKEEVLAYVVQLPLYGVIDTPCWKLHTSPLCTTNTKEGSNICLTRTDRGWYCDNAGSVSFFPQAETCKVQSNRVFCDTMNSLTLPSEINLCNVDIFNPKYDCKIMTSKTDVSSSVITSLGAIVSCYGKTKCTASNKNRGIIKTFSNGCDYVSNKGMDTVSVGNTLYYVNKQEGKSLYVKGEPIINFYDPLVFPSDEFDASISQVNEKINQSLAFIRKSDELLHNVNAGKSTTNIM
# Protocol: A typical kinetic study involved the injection of 35 ml of Mab at varying concentrations (25-300 nM) in PBS buffer containing 0.05% Tween-20 (PBS/Tween). The flow rate was maintained at 5 ml/min, giving a 7 min binding phase. Following the injection of Mab, the flow was exchanged with PBS/Tween buffer for 30 min for determining the rate of dissociation. The sensor chip was regenerated between cycles with a 2 min pulse of 10 mM HCI.
# More specifically, for measurement of kassoc (or kₒₙ), F protein was directly immobilized by the EDC/NHS method (EDC=N-ethyl-N′-[3-diethylaminopropyl)-carbodiimide). Briefly, 4 μg/ml of F protein in 10 mM NaOAc, pH 4.0 was prepared and about a 30 μl injection gives about 500 RU (response units) of immobilized F protein under the above referenced conditions. The blank flow cell (VnR immobilized-CM dextran surface) was subtracted for kinetic analysis. The column could be regenerated using 100 mM HCI (with 72 seconds of contact time being required for full regeneration). […] The dissociation phase was analyzed from 230 seconds (30 seconds after start of the dissociation phase) to 900 seconds. Kinetics were analyzed by 1:1 Langmuir fitting (global fitting). Measurements were done in HBS-EP buffer (10 mM HEPES, pH 7.4, 150 mM NaCl, 3 mM EDTA, 0.005% (v/v) Surfactant P20.
# For measuring k_{off (or k}dissoc) the following conditions were employed. Briefly, 4100 RU of F protein were immobilized (as above) with CM-dextran used as the blank. Here, 3000 RU of Fab was bound (with dissociated Fab high enough to offset machine fluctuation). […] The dissociation phase was 6-15 hours at a flow rate of 5 μl/min.
# [3] = target: F protein of respiratory syncytial virus (RSV-Long strain), on infectious virus (respiratory syncytial virus (RSV-Long …, UniProt P12568 26-574)); test: cell-based or functional assay
# Chain of F protein of respiratory syncytial virus (RSV-Long strain), on infectious virus (respiratory syncytial virus (RSV-Long strain)) (P12568 26-574): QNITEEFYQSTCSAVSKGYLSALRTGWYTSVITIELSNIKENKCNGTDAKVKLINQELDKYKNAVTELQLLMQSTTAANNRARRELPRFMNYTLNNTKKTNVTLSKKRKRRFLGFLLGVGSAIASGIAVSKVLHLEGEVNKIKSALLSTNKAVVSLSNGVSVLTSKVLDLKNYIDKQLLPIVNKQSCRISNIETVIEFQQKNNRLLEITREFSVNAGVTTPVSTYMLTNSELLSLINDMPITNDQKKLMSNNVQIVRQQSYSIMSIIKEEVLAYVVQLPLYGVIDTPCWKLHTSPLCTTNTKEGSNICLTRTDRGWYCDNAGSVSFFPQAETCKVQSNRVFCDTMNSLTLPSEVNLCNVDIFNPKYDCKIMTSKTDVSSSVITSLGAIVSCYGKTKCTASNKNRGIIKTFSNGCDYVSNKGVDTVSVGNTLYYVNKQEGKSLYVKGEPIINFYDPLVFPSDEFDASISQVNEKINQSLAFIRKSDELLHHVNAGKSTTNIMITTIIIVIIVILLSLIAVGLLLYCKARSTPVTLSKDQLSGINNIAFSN
Binder,"Mean IC50 µg/ml, RSV microneutralization [1]","Mean IC50 (Control) µg/ml, RSV microneutralization [1]",koff [2],kon [2],"EC50 (nM), RSV microneutralization [3]"
"Clone 24 (IgG) (antibody, V domains shown) VH: QVTLRESGPALVKPTQTLTLTCTFSGFSLSTAGMSVGWIRQPPGKALEWLADIWWDGKKHYNPSLKDRLTISKDTSKNQVVLKVTNMDPADTATYYCARDMIFNWYFDVWGQGTTVTVSS VL: DIQMTQSPSTLSASVGDRVTITCSLSSRVGYMHWYQQKPGKAPKLLIYDTFKLSSGVPSRFSGSGSGTEFTLTISSLQPDDFATYYCFQGSGYPFTFGGGTKVEIKR",0.0625 µg/mL,0.0645 µg/mL,,,
"Reference clone (Fab fragment with the sequences of FIG. 2 and the CDRs of Table 1) (Fab, V domains shown, also called basic structure) VH: QVTLRESGPALVKPTQTLTLTCTFSGFSLSTSGMSVGWIRQPPGKALEWLADIWWDDKKDYNPSLKSRLTISKDTSKNQVVLKVTNMDPADTATYYCARSMITNWYFDVWGQGTTVTVSS VL: DIQMTQSPSTLSASVGDRVTITCSASSSVGYMHWYQQKPGKAPKLLIYDTSKLASGVPSRFSGSGSGTEFTLTISSLQPDDFATYYCFQGSGYPFTFGGGTKVEIK",,,0.00065 s⁻¹,185000 M⁻¹ s⁻¹,3.52 nM
"Clone 23 (IgG) (antibody, V domains shown) VH: QVTLRESGPALVKPTQTLTLTCTFSGFSLSTPGMSVGWIRQPPGKALEWLADIWWDGKKHYNPSLKDRLTISKDTSKNQVVLKVTNMDPADTATYYCARDMIFNWYFDVWGQGTTVTVSS VL: DIQMTQSPSTLSASVGDRVTITCSPSSRVGYMHWYQQKPGKAPKLLIYDTMRLASGVPSRFSGSGSGTEFTLTISSLQPDDFATYYCFQGSGYPFTFGGGTKVEIKR",0.0217 µg/mL,0.0289 µg/mL,,,
"Clone 18 (IgG) (antibody, V domains shown) VH: QVTLRESGPALVKPTQTLTLTCTFSGFSLSTAGMSVGWIRQPPGKALEWLADIWWDGKKSYNPSLKDRLTISKDTSKNQVVLKVTNMDPADTATYYCARDMIFNFYFDVWGQGTTVTVSS VL: DIQMTQSPSTLSASVGDRVTITCLPSSRVGYMHWYQQKPGKAPKLLIYDTMYQSSGVPSRFSGSGSGTEFTLTISSLQPDDFATYYCFQGSGYPFTFGGGTKVEIKR",0.0342 µg/mL,0.0354 µg/mL,,,
"Clone 27 (Fab) (Fab, V domains shown) VH: QVTLRESGPALVKPTQTLTLTCTFSGFSLSTAGMSVGWIRQPPGKALEWLADIWWDGKKSYNPSLKSRLTISKDTSKNQVVLKVTNMDPADTATYYCARDMIFNFYFDVWGQGTTVTVSS VL: DIQMTQSPSTLSASVGDRVTITCLPSSRVGYMHWYQQKPGKAPKLLIYDTMYQSSGVPSRFSGSGSGTEFTLTISSLQPDDFATYYCFQGSGYPFTFGGGTKVEIK",0.0179 µg/mL,0.0171 µg/mL,,,
"Clone 26 (IgG) (antibody, V domains shown) VH: QVTLRESGPALVKPTQTLTLTCTFSGFSLSTAGMSVGWIRQPPGKALEWLADIWWDGKKSYNPSLKDRLTISKDTSKNQVVLKVTNMDPADTATYYCARDMIFNFYFDVWGQGTTVTVSS VL: DIQMTQSPSTLSASVGDRVTITCSLSSRVGYMHWYQQKPGKAPKLLIYDTMYQSSGVPSRFSGSGSGTEFTLTISSLQPDDFATYYCFQGSGYPFTFGGGTKVEIKR",0.0376 µg/mL,0.0375 µg/mL,,,
"Clone 21 (IgG) (antibody, V domains shown) VH: QVTLRESGPALVKPTQTLTLTCTFSGFSLSTPGMSVGWIRQPPGKALEWLADIWWDDKKHYNPSLKDRLTISKDTSKNQVVLKVTNMDPADTATYYCARDMIFNFYFDVWGQGTTVTVSS VL: DIQMTQSPSTLSASVGDRVTITCSLSSRVGYMHWYQQKPGKAPKLLIYDTFYLSSGVPSRFSGSGSGTEFTLTISSLQPDDFATYYCFQGSGYPFTFGGGTKVEIKR",0.0231 µg/mL,0.0223 µg/mL,,,
"Clone 29 (Fab) (Fab, V domains shown) VH: QVTLRESGPALVKPTQTLTLTCTFSGFSLSTAGMSVGWIRQPPGKALEWLADIWWDDKKHYNPSLKDRLTISKDTSKNQVVLKVTNMDPADTATYYCARDMIFNFYFDVWGQGTTVTVSS VL: DIQMTQSPSTLSASVGDRVTITCSASSRVGYMHWYQQKPGKAPKLLIYDTFFLDSGVPSRFSGSGSGTEFTLTISSLQPDDFATYYCFQGSGYPFTFGGGTKVEIK",0.0414 µg/mL,0.0411 µg/mL,,,
"Clone 19 (IgG) (antibody, V domains shown) VH: QVTLRESGPALVKPTQTLTLTCTFSGFSLSTAGMSVGWIRQPPGKALEWLADIWWDDKKHYNPSLKDRLTISKDTSKNQVVLKVTNMDPADTATYYCARDMIFNFYFDVWGQGTTVTVSS VL: DIQMTQSPSTLSASVGDRVTITCSASSRVGYMHWYQQKPGKAPKLLIYDTFFLDSGVPSRFSGSGSGTEFTLTISSLQPDDFATYYCFQGSGYPFTFGGGTKVEIKR",0.0171 µg/mL,0.0154 µg/mL,,,
"Clone 20 (IgG) (antibody, V domains shown) VH: QVTLRESGPALVKPTQTLTLTCTFSGFSLSTAGMSVGWIRQPPGKALEWLADIWWDDKKSYNPSLKDRLTISKDTSKNQVVLKVTNMDPADTATYYCARDMIFNWYFDVWGQGTTVTVSS VL: DIQMTQSPSTLSASVGDRVTITCSPSSRVGYMHWYQQKPGKAPKLLIYDTRYQSSGVPSRFSGSGSGTEFTLTISSLQPDDFATYYCFQGSGYPFTFGGGTKVEIKR",0.0337 µg/mL,0.0383 µg/mL,,,
"Clone 22 (IgG) (antibody, V domains shown) VH: QVTLRESGPALVKPTQTLTLTCTFSGFSLSTPGMSVGWIRQPPGKALEWLADIWWDDKKHYNPSLKDRLTISKDTSKNQVVLKVTNMDPADTATYYCARDMIFNFYFDVWGQGTTVTVSS VL: DIQMTQSPSTLSASVGDRVTITCSLSSRVGYMHWYQQKPGKAPKLLIYDTRGLPSGVPSRFSGSGSGTEFTLTISSLQPDDFATYYCFQGSGYPFTFGGGTKVEIKR",0.0242 µg/mL,0.0235 µg/mL,,,
"Clone 28 (Fab) (Fab, V domains shown) VH: QVTLRESGPALVKPTQTLTLTCTFSGFSLSTAGMSVGWIRQPPGKALEWLADIWWDDKKSYNPSLKDRLTISKDTSKNQVVLKVTNMDPADTATYYCARDMIFNWYFDVWGQGTTVTVSS VL: DIQMTQSPSTLSASVGDRVTITCSPSSRVGYMHWYQQKPGKAPKLLIYDTRYQSSGVPSRFSGSGSGTEFTLTISSLQPDDFATYYCFQGSGYPFTFGGGTKVEIK",0.177 µg/mL,0.157 µg/mL,,,
"Clone 25 (IgG) (antibody, V domains shown) VH: QVTLRESGPALVKPTQTLTLTCTFSGFSLSTAGMSVGWIRQPPGKALEWLADIWWDGKKDYNPSLKDRLTISKDTSKNQVVLKVTNMDPADTATYYCARDMIFNFYFDVWGQGTTVTVSS VL: DIQMTQSPSTLSASVGDRVTITCSASSRVGYMHWYQQKPGKAPKLLIYDTFKLSSGVPSRFSGSGSGTEFTLTISSLQPDDFATYYCFQGSGYPFTFGGGTKVEIKR",0.0357 µg/mL,0.0354 µg/mL,,,
"Clone 5 (Fab) (Fab, V domains shown) VH: QVTLRESGPALVKPTQTLTLTCTFSGFSLSTAGMSVGWIRQPPGKALEWLADIWWDDKKDYNPSLKSRLTISKDTSKNQVVLKVTNMDPADTATYYCARDMITNFYFDVWGQGTTVTVSS VL: DIQMTQSPSTLSASVGDRVTITCSASSSVGYMHWYQQKPGKAPKLLIYDTFKLASGVPSRFSGSGSGTEFTLTISSLQPDDFATYYCFQGSGYPFTFGGGTKVEIK",,,0.000306 s⁻¹,416000 M⁻¹ s⁻¹,2.61 nM
"Clone 4 (Fab) (Fab, V domains shown, also called H3-3F4) VH: QVTLRESGPALVKPTQTLTLTCTFSGFSLSTAGMSVGWIRQPPGKALEWLADIWWDDKKDYNPSLKSRLTISKDTSKNQVVLKVTNMDPADTATYYCARDMIFNWYFDVWGQGTTVTVSS VL: DIQMTQSPSTLSASVGDRVTITCSASSSVGYMHWYQQKPGKAPKLLIYDTRYLSSGVPSRFSGSGSGTEFTLTISSLQPDDFATYYCFQGSGYPFTFGGGTKVEIK",,,0.000462 s⁻¹,757000 M⁻¹ s⁻¹,3.55 nM
"Clone 6 (Fab) (Fab, V domains shown) VH: QVTLRESGPALVKPTQTLTLTCTFSGFSLSTAGMSVGWIRQPPGKALEWLADIWWDDKKDYNPSLKSRLTISKDTSKNQVVLKVTNMDPADTATYYCARSMITNFYFDVWGQGTTVTVSS VL: DIQMTQSPSTLSASVGDRVTITCSASSSVGYMHWYQQKPGKAPKLLIYDTFKLASGVPSRFSGSGSGTEFTLTISSLQPDDFATYYCFQGSFYPFTFGGGTKVEIK",,,0.00032 s⁻¹,185000 M⁻¹ s⁻¹,2.88 nM
"Clone 1 (Fab) (Fab, V domains shown) VH: QVTLRESGPALVKPTQTLTLTCTFSGFSLSTAGMSVGWIRQPPGKALEWLADIWWDDKKDYNPSLKSRLTISKDTSKNQVVLKVTNMDPADTATYYCARDMITNFYFDVWGQGTTVTVSS VL: DIQMTQSPSTLSASVGDRVTITCSASSSVGYMHWYQQKPGKAPKLLIYDTFKLTSGVPSRFSGSGSGTEFTLTISSLQPDDFATYYCFQGSGYPFTFGGGTKVEIK",,,0.000326 s⁻¹,365000 M⁻¹ s⁻¹,2.26 nM
"Clone 3 (Fab) (Fab, V domains shown) VH: QVTLRESGPALVKPTQTLTLTCTFSGFSLSTAGMSVGWIRQPPGKALEWLADIWWDDKKDYNPSLKSRLTISKDTSKNQVVLKVTNMDPADTATYYCARDMIFNWYFDVWGQGTTVTVSS VL: DIQMTQSPSTLSASVGDRVTITCSASSSVGYMHWYQQKPGKAPKLLIYDTYKQTSGVPSRFSGSGSGTEFTLTISSLQPDDFATYYCFQGSGYPFTFGGGTKVEIK",,,0.000422 s⁻¹,605000 M⁻¹ s⁻¹,4.7 nM
"Clone 2 (Fab) (Fab, V domains shown) VH: QVTLRESGPALVKPTQTLTLTCTFSGFSLSTAGMSVGWIRQPPGKALEWLADIWWDDKKDYNPSLKSRLTISKDTSKNQVVLKVTNMDPADTATYYCARDMIFNWYFDVWGQGTTVTVSS VL: DIQMTQSPSTLSASVGDRVTITCSASSSVGYMHWYQQKPGKAPKLLIYDTFKLASGVPSRFSGSGSGTEFTLTISSLQPDDFATYYCFQGSGYPFTFGGGTKVEIK",,,0.000422 s⁻¹,531000 M⁻¹ s⁻¹,5.05 nM
